In patent US20230416351A1:

Molecular target: recombinant VEGF165 protein (human) (UniProt P15692)
Assay: SPR in vitro binding, drug and recombinant VEGF165, 37 C

Sequence of recombinant VEGF165 protein (human) (P15692 other isoform, or with tags, fused parts or gaps): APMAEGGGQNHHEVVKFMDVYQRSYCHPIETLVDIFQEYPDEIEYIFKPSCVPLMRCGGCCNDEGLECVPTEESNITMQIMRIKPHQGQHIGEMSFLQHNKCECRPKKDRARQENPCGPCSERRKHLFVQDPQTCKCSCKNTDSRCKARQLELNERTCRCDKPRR

Substance aflibercept (Fc fusion) has a Kd of 0.457 nM.
